From US20240254245A1 (JIANGSU HENGRUI PHARMACEUTICALS, published 2024) come the findings set out here.

Sequences and labels used below:
T1: human RANKL protein (Sino Biological, 11682-HNCH) (human, UniProt O14788 136-317, limits assumed)
T1 construct: Bought protein
T1 sequence (looked up): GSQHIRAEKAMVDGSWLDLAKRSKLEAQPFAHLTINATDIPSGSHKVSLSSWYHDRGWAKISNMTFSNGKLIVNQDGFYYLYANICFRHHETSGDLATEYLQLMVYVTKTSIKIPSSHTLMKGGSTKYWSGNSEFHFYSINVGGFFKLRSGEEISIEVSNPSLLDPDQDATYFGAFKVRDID

B1: 5-58H (antibody, V domains shown)
VH: EVQLLESGGGLVQPGGSLRLSCAASGFTFSSYAMSWVRQAPGKGLEWVSGITGSGGSTYYADSVKGRFTISRDNSKNTLYLQMNSLRAEDTAVYYCVQDPGFTYIMSWFDPWGQGTLVTVSS
VL: EIVLTQSPGTLSLSPGERATLSCRASQSVRGRYLAWYQQKPGQAPRLLIYGASSRATGIPDRFSGSGSGTDFTLTISRLEPEDFAVFYCQQYGSSPRTFGQGTKVEIK
notes: Variable regions fused to human constant regions
B2: 5-53H (antibody, V domains shown)
VH: B1 VH with V97A, G101C
VL: B1 VL
notes: as for B1
B3: 2-79L (antibody, V domains shown)
VH: B1 VH with V97A, Q98K, F102T, Y104V
VL: B1 VL with A52S
notes: as for B1
B4: 3-37L (antibody, IgG4, V domains shown)
VH: B1 VH with V97A, Q98K, F102T, Y104V
VL: B1 VL with S28A, V29I, Y33K, G51D, A52T
notes: as for B1
B5: 2-72L (antibody, V domains shown)
VH: B1 VH with V97A, Q98K, F102T, Y104V
VL: B1 VL with V29L, R30G, G31A, Y33G, A52T
notes: as for B1
B6: 4-64L (antibody, V domains shown)
VH: B1 VH with V97A, Q98K, F102T, Y104V
VL: B1 VL with T98I
notes: as for B1
B7: 3-83L (antibody, V domains shown)
VH: B1 VH with V97A, Q98K, F102T, Y104V
VL: B1 VL with S28A, V29L, R30G, G31V, Y33G
notes: as for B1
B8: 3-20L (antibody, IgG4, V domains shown)
VH: B1 VH with V97A, Q98K, F102T, Y104V
VL: B1 VL with S28A, V29I, R32P, Y33N, G51D, A52T
notes: as for B1
B9: 1-22H (antibody, V domains shown)
VH: B1 VH with S30A, S31D, T52S, G53A, G56S, V97A, Q98K, F102T, Y104V
VL: B1 VL
notes: Variable regions were fused to human heavy and light chain constant regions to form complete chains
B10: 2-87L (antibody, IgG4, V domains shown)
VH: B1 VH with V97A, Q98K, F102T, Y104V
VL: B1 VL with S28Y, V29L, R30P, G31F, R32H, Y33R, G51D, A52T
notes: as for B1
B11: 3-85L (antibody, V domains shown)
VH: B1 VH with V97A, Q98K, F102T, Y104V
VL: B1 VL with V29I, R30P, R32P, Y33R
notes: as for B1
B12: 2-52L (antibody, V domains shown)
VH: B1 VH with V97A, Q98K, F102T, Y104V
VL: B1 VL with G51Q, A52G
notes: as for B1
B13: 5-16H (antibody, V domains shown)
VH: B1 VH with V97A, Q98K, G101A, F102S, T103I, Y104V
VL: B1 VL
notes: as for B1
B14: 2-76L (antibody, IgG4, V domains shown)
VH: B1 VH with V97A, Q98K, F102T, Y104V
VL: B1 VL with S28A, V29I, R30P, G31Y, R32N, Y33Q, A52V
notes: as for B1
B15: 5-51H (antibody, V domains shown)
VH: B1 VH with V97A, Q98K, G101C, T103S
VL: B1 VL
notes: as for B1

A word on the IC50: it is the concentration that gives 50% inhibition. As usually defined, the Kd is the equilibrium constant for the complex coming apart. Low values mean higher affinity, high ones lower affinity. By koff is commonly meant the first-order rate constant of dissociation. High values mean fast dissociation, low ones slow dissociation. A word on the kon: it is the second-order rate constant of association.

Where a chain is given by its changes, count along the chain named.

The target in the first assay is T1, human RANKL protein (Sino Biological, …). Briefly: blocking ELISA: antibody titrated with fixed biotin-human RANKL, on coated human RANK. The method, then: After the incubation was complete, the plate was washed 3 times with PBST. Streptavidin-HRP (Invitrogen, 434323, diluted at 1:4000) was added at 100 μL/well, and the plate was incubated at 37° C. for 1 h. The supernatant was removed. After the plate was washed 3 times with PBST, TMB chromogenic substrate (KPL, 5120-0077) was added at 100 μL/well, and the plate was incubated at room temperature for 10 to 15 min. […] The absorbance values at 450 nm were taken using a microplate reader.
A general note: In an ELISA, binding on a coated surface is turned into a signal by an enzyme label.
In turn, B1 displayed an IC50 of 0.999 nM.
On the same count and under the same terms, in the case of B2 it was 1.37 nM.

Another assay has the same target. The assay can be described thus: SPR (Biacore), antibody captured on Protein A chip, RANKL in flow, 1:1 fit. The method, then: Reaction signals were detected in real time by using Biacore, and binding and dissociation curves were obtained. After dissociation was complete in each cycle, the biochip was washed and regenerated with a glycine-hydrochloric acid regeneration solution (GE, BR-1003-54) having a pH of 1.5. Fitting was performed on the experimental data using BIAevaluation version 4.1 software with a 1:1 model, and affinity values were obtained.
B3: the Kd is 16.3 nM, the “Ratio of affinities (fold increase in affinity relative to denosumab)” value was 0.57 fold, the koff amounted to 0.000232 s⁻¹ and the kon worked out at 14200 M⁻¹ s⁻¹.
Taken in the same sequence, the figures for B4 were 19.7 nM, 0.47 fold, 0.000305 s⁻¹ and 15500 M⁻¹ s⁻¹.
Taken in the same sequence, the figures for B5 were 19 nM, 0.49 fold, 0.000308 s⁻¹ and 16200 M⁻¹ s⁻¹.
Taken in the same sequence, the figures for B6 were 17.1 nM, 0.54 fold, 0.000253 s⁻¹ and 14800 M⁻¹ s⁻¹.
Consider B7, for which binding was characterised by a dissociation constant (Kd) of 20.7 nM, the “Ratio of affinities (fold increase in affinity relative to denosumab)” value is 0.45 fold, the koff is 0.000322 s⁻¹ and the kon worked out at 15600 M⁻¹ s⁻¹.
Taken in the same sequence, the figures for B1 were 41 nM, 0.23 fold, 0.000501 s⁻¹ and 12200 M⁻¹ s⁻¹.
In the same order, the values of B8 are 13.5 nM, 0.68 fold, 0.000272 s⁻¹ and 20100 M⁻¹ s⁻¹.
Taken in the same sequence, the figures for B9 were 9.81 nM, 0.94 fold, 0.000253 s⁻¹ and 25800 M⁻¹ s⁻¹.
For the molecule B10, the Kd stood at 25.6 nM, the “Ratio of affinities (fold increase in affinity relative to denosumab)” value stood at 0.36 fold, the koff was found to be 0.000273 s⁻¹ and the kon was 10700 M⁻¹ s⁻¹.
Taken in the same sequence, the figures for B11 were 22.3 nM, 0.41 fold, 0.000335 s⁻¹ and 15000 M⁻¹ s⁻¹.
In the same order, the values of B12 are 14.2 nM, 0.65 fold, 0.000222 s⁻¹ and 15700 M⁻¹ s⁻¹.
Taken in the same sequence, the figures for B13 were 8.91 nM, 1.04 fold, 0.00026 s⁻¹ and 29200 M⁻¹ s⁻¹.
For B2, the Kd was found to be 34 nM, the “Ratio of affinities (fold increase in affinity relative to denosumab)” value is 0.27 fold, the koff was found to be 0.000583 s⁻¹ and the on-rate (kon) was 17200 M⁻¹ s⁻¹.
In the same order, the values of B14 are 20.3 nM, 0.46 fold, 0.000341 s⁻¹ and 16800 M⁻¹ s⁻¹.
Taken in the same sequence, the figures for B15 were 23.6 nM, 0.39 fold, 0.00069 s⁻¹ and 29200 M⁻¹ s⁻¹.
